Consider three molecules from patent publication US20080311122A1 (AstraZeneca / MedImmune, published 2008).

For orientation: IC50 means the midpoint of a concentration-inhibition curve. One may read the Kd as the free concentration of one partner at which half of the binding sites on the other are occupied at equilibrium, for simple one-to-one binding.

The target of one test is T1, HMG2 (UniProt P40673 2-209, limits assumed).
T1 construct: also called HMGB2; HMBG2
T1 sequence (looked up): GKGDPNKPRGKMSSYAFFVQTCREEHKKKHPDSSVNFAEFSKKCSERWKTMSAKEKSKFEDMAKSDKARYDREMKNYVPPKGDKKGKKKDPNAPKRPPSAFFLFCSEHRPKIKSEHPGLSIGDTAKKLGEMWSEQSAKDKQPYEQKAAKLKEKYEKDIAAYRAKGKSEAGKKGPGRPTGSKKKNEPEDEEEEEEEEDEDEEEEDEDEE
In words: ELISA, wells coated with HMGB2 at 5 ug/mL, OD 490. How it is done: (§1) Binding to HMG1 vs. HMG2: Ultra high-binding ELISA plates (ThermoLab systems, #3855) were coated with either 5 ug/mL of Calf thymus HMGB1 or HMBG2 diluted in 10 mM Phosphate buffered saline (PBS), pH 7.2 and incubate overnight at 4 degrees. The plates were washed twice with Ca and Mg free PBS and 100 microliters of anti-HMGB1 antibody diluted in 10 mM PBS, pH 7.2+1% bovine serum albumin (BSA) to a final concentration of 10 ug/mL was added to each well and the plates were incubated 1 hour at room temperature. The wells were washed three times with 100 μl of PBS, pH 7.2. HRP labeled goat-anti-human IgG Kappa-chain (KPL, #14-10-10) and goat-anti-human IgG Lambda-chain (KPL, #14-10-11) were diluted in 10 mM PBS+1% BSA 1:1000 and 100 μl were added to each well and incubated for 1 hour at room temperature. The wells were then washed three times with 100 μl of PBS, pH 7.2. OPD substrate (Pierce chemical company, #34006) was prepared following the manufacturers instructions and 100 μl of prepared substrate was added to each well and the plates incubated at room temperature in the dark for 20-30 minutes. The reaction was stopped with the addition of 100 μl of 2M H₂SO₄, and the plates read on a plate reader at a wavelength of 490 nm.
On the technique in general: In an ELISA, binding on a coated surface is turned into a signal by an enzyme label.

Test [1] concerns the target T2, HMG1 B Box peptide amino acids 91-169.
T2 construct: also called HMG1 peptide 91-169
T2 peptide: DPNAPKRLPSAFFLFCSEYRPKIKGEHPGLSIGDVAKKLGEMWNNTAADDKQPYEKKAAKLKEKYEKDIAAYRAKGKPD
Briefly: ELISA, wells coated with HMG1 B Box peptide 91-169 at 10 ug/ml. As to the method:
(§2) The plate was then blocked with 4% milk powder dissolved in PBS at 37° C. for 1 hour. The blocking solution was removed and replaced with human anti-HMG1 antibodies at various concentrations (see FIGS. 5A-B). […] HRP activity was detected with Sureblue HRP substrate (KPL). Plates were read at 450 nm using a Kinetic Microplate Reader (Molecular Devices). […] After washing and blocking with 1% BSA in PBS, the biotinylated peptides were individually added into the avidin coated wells and incubated for 30 min at room temperature. The serial diluted antibody G4, S16 and S6 at the initial concentration at 10 μg/ml were then transferred into the wells followed by adding mouse anti human IgG-HRP conjugate (Pierce). Detection was accomplished by adding 50 μl of tetramethylbenzidine (TMB) substrate (KPL) and the absorbance was read at […].

Test [2] has as its target T3, recombinant HMG1 purified from E. coli as a calmodulin binding protein (CBP) fusion protein (human, UniProt A9RA84 1-215 (Papio anubis entry)).
T3 sequence: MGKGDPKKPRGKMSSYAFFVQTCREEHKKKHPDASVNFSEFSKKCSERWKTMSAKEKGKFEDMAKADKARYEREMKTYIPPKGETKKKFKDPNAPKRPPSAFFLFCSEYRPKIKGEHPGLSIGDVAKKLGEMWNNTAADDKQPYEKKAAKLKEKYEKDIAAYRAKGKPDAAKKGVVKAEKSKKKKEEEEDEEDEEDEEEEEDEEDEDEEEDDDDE
In words: cell-based or functional assay.

The target of test [3] is T4, HMG1 purified from bovine (calf) thymus (bovine, UniProt P10103 2-215).
T4 construct: also called Calf thymus HMGB1; thymus HMG1
T4 sequence (looked up): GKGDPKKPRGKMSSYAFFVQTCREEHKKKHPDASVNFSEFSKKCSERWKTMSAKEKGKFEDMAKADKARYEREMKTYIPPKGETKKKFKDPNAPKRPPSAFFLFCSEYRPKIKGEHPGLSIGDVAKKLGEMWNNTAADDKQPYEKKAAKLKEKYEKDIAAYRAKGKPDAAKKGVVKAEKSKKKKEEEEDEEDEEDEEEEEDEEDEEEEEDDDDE
In words: ELISA, wells coated with calf thymus HMGB1 at 5 ug/mL, antibody at 10 ug/mL, anti-human kappa/lambda-HRP, OD 490. How it is done:
as §1

Test [4] addresses T5, recombinant rat HMGB-1, Europium-labeled (rat, UniProt P63159 1-215, limits assumed, Europium label, molar ratio of HMGB-1 to Eu 1:5).
T5 construct: also called Europium-labeled HMGB-1; recombinant HMG1 (Thp-1 assay)
T5 sequence (looked up): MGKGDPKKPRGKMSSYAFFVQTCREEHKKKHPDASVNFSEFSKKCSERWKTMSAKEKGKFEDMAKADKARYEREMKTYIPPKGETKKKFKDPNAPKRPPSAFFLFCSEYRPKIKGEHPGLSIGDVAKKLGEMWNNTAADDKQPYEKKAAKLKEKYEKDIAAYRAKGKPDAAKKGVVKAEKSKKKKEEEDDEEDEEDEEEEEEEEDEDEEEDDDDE
In words: inhibition of binding of Eu-labeled HMGB-1 to THP-1 cells. How it is done:
HMG1 binding to THP-1 Cells: Recombinant rat HMGB-1 was labeled using Eu-labelling Kit from PerkinElmer. Molar ratio of HMGB-1 to Eu is 1:5. THP-1 were cultured as the protocol from ATCC. Cells were harvested and suspended at concentration 1×10⁶/ml in assay buffer containing 1×DELFIA L*R binding buffer (PerkinElmer), 50% of DELFIA stabilizer (PerkinElmer) and 0.05% of sodium azide. 100 μl of cells (1×10⁵) was added into wells in 96 well cell culture plate. The plate was incubated with gentle shaking at 4° C. for one hour. 100 μl of assay buffer containing 2 nM of Europium-labeled HMGB-1 mixed with various concentrations (333, 166.5, 83.25, 41.6, 20.8, 10.4 and 5.2 nM) of human anti-HMGB1 antibodies E11 or G2 or soluble human RAGE-Fc, were added into each wells respectively. After one hour incubation with gentle shaking at 4° C., the cells were washed four times with 1×L*R wash buffer (PerkinElmer) by centrifuging at 1200 rpm×5 min. 200 μl of enhancement solution was added into each well to dissociate and enhance Eu fluorescence at 615 nm. The fluorescence was measured with Wallac Victor Fluorometer. Assay was performed in triplicate and human antibody R3-47 was used the negative isotype control.

Test [5] concerns the target T6, HMG1 B Box peptide amino acids 150-183.
T6 peptide: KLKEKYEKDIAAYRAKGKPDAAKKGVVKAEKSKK
In words: ELISA, wells coated with HMG1 B Box peptide 150-183 at 10 ug/ml. As to the method:
as §2

Test [6] deals with T3, recombinant HMG1 purified from E. coli …. In words: ELISA, rHMG1 preincubated with antibody, coated RAGE-Fc. As to the method: HMG1 binding to RAGE-Ig by ELISA: 50 μl/well of RAGE-Fc fusion protein at 5 μg/ml in PBS was added to each well of an ELISA plate and incubated overnight at 4° C. The plate was then blocked with 200 μl of 5% milk at 37° C. for 1 hr and washed 3× with PBS/Tween. 50 μl/well of diluted HMGB1 solution. For dose curves, HMGB1 concentrations started at 4 ug/ml in PBS. For antibody blocking the HMGB1 was preincubated in another plate with human anti-HMG1 antibodies or buffer, then transferred to the RAGE-coated plate. The plates were then incubated at room temperature for 2 hours and washed 3×. To detect any HMG1 bound to the immobilized RAGE-Fc a mixture of biotinylated mouse anti-HMG1 mAbs (10D4, 4H11, 3E10 and 5C12) each at 1 ug/ml, total Ab: 4 ug/ml, were added to each well and the plate was incubated for 1 hour at room temperature. The plate was then washed and Strepavidin-HPR was added to each well and incubated 15 min. The plate was then washed 3× and blotted dry. 100 μl of TMB developing agent was added and the plate read at 650 nm. Values were calculated as percent of inhibition with HMG1 alone equal to 0% inhibition. The data in FIG. 9 and summarized in Table 1 represent the average of two separate experiments.

For test [7] the target is unchanged. Briefly: BIAcore, mAb immobilized, HMG1 injected, steady-state model. As to the method:
HMG1 Binding Affinity via BIAcore Analysis: All experiments were performed on a BIAcore 3000 instrument (BIAcore, Inc., Piscataway, N.J.). Briefly, each mAb was immobilized to a CM5 sensor chip using a standard amino coupling chemistry. Separately a reference (control) flow cell was also prepared. Two-fold, serial dilutions of HMG1 in instrument buffer were sequentially injected at a slow flow rate over the individual mAb and reference flow-cell surfaces. Following the binding and dissociation of HMG1, the mAbs surfaces were regenerated with a brief pulse of 1M NaCl-50 mM NaOH. At the end of each experiment, the binding curves were evaluated using a steady-state model available through the BIA evaluation software supplied by BIAcore, Inc. (Piscataway, N.J.).
Background: Surface plasmon resonance follows binding to a sensor surface in real time, without labels.

Test [8] addresses T7, activated HMG1 prepared from LPS stimulated THP-1 cells (human, UniProt P09429 1-215).
T7 sequence (looked up): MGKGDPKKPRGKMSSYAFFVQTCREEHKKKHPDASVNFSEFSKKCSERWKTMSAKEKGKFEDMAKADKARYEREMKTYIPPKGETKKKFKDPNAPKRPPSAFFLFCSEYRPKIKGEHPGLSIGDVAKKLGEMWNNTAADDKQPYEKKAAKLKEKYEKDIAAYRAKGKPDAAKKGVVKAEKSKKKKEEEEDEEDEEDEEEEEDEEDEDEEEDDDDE
In words: cell-based or functional assay.

B1: anti-HMG1 antibody G2 (antibody, V domains shown)
VH: EVQLLESGGGLVQPGGSLRLSCAASGFTFSWYKMQWVRQAPGKGLEWVSGISPSGGSTAYADSVKGRFTISRDNSKNTLYLQMNSLRAEDTAVYYCAKMGLFNTGNSYVDYWGQGTLVTVSS
VL: AQSELTQPPSVSEAPGQRVTISCSGSTSNIGNNAVIWYQQLPGKAPKLLIYYDDLLPSGVSDRFSGSKSGTSGSLAISGLQSEDEADYYCASWDDNLNGPLFGGGTKLTVL
B1: the binding result with HMG2 was “no binding (tested: 10 ug/mL (not on the sheet))”. Further, the binding result in test [1] is recorded as “no binding (tested: 10 ug/ml (log 1.00))”. Moreover, in test [2], the “IC50, inhibition of rHMG1 stimulated IL-1β release from human PBMC” value was 5.03 µg/mL; the “IC50, inhibition of rHMG1 stimulated IL-6 release from human PBMC” value worked out at 0.994 nM; the “IC50, inhibition of rHMG1 stimulated IL-12 release from human PBMC” value came to 1.26 µg/mL; the “IC50, inhibition of rHMG1 stimulated TNF-α release from human PBMC” value stood at 1.35 µg/mL. Also, in test [3], the binding result is “binds”. For the same molecule, in test [4], the IC50 came to 73.3 nM. The binding result in [5] is on record as “no binding (tested: 10 ug/ml (log 1.00))”.

B2: anti-HMG1 antibody S10 (antibody, V domains shown)
VH: EVQLLESGGGLVQPGGSLRLSCAASGFTFSWYDMWWVRQAPGKGLEWVSWIVPSGGITAYADSVKGRFTISRDNSKNTLYLQMNSLRAEDTATYYCARGNYGPSPFDYWGQGTLVTVSS
VL: DIQMTQSPGTLSLSPGERATLSCRATQSVRKNFLAWYQQKPGQAPRLLIYDASSRATGIPDRFSGSGSGTDFTLTISRLEPEDFAVYYCQQYGNSPIIFGQGTRLEIK
B2: the binding result in the test with HMG2 is “no binding (tested: 10 ug/mL (not on the sheet))”. In [1], the binding result is “no binding (tested: 10 ug/ml (log 1.00))”. The “percent inhibition of HMG1 binding to RAGE-Fc” value in test [6] was ≥ 35%. In addition, in [2], the “IC50, inhibition of rHMG1 stimulated IL-1β release from human PBMC” value was 2.59 µg/mL; the “IC50, inhibition of rHMG1 stimulated IL-6 release from human PBMC” value was 0.324 nM; the “IC50, inhibition of rHMG1 stimulated IL-12 release from human PBMC” value amounted to 1.13 µg/mL; the “IC50, inhibition of rHMG1 stimulated TNF-α release from human PBMC” value was 0.875 µg/mL. Also, the binding result in test [3] was “binds”. Also, the Kd in test [7] was 54 nM. Besides, in test [5], the binding result is on record as “no binding (tested: 10 ug/ml (log 1.00))”.

B3: anti-HMG1 antibody S17 (antibody, V domains shown)
VH: EVQLLESGGGLVQPGGSLRLSCAASGFTFSYYDMHWVRQAPGKGLEWVSRISPSGGYTWYADSVKGRFTISRDNSKNTLYLQMNSLRAEDTAVYYCTRGRYTSGWHEYFDPWGQGTLVTVSS
VL: DIQMTQSPSSLSASVGDRVTITCRASQSIGTYLNWYQQKPGTAPKVLIYAASSLQSGVPSRFSGSGSGTDFTLTISSLQPEDFSTYYCQQSYNTPRTFGQGTKLEIK
With B3, the binding result in the test with HMG2 was “no binding (tested: 10 ug/mL (not on the sheet))”; in test [1], “no binding (tested: 10 ug/ml (log 1.00))”; in test [3] it was “binds”; in test [5] it was “no binding (tested: 10 ug/ml (log 1.00))”. In addition, the “IC50, inhibition of native activated HMG1 stimulated IL-6 release from human PBMC” value in [8] was 11.5 nM. In addition, the “IC50, inhibition of HMG1 stimulated NO release from macrophages” value in test [2] amounted to 41.7 µg/mL. Moreover, the “IC50, inhibition of rHMG1 stimulated IL-1β release from human PBMC” value in [2] is 0.0809 µg/mL. Further, in test [2], the “IC50, inhibition of rHMG1 stimulated IL-6 release from human PBMC” value was 0.162 nM.
